The values below come from patent US20200216495A1 (ADRX, published 2020).

Values joined by “and” are separate entries in the source; they are usually repeats but may differ in a detail not shown here. Identical values can stand only once. Square brackets hold non-standard residues; d marks the D form. Ends that are not written are not given here. dCha = N[C@H](CC1CCCCC1)C(=O)O; dNle = CCCC[C@@H](N)C(=O)O

T1: Tau40 P301L protein (human)
T1 sequence: WIKIRR

T2: Ac-VQIINK-NH2 (SEQ ID NO: 23)
T2 sequence (peptide, N-terminal acetyl (Ac); C-terminal amide (NH2)): RLKIRW

B1: brlkvrw (PEPTIDE ID NO: 293) (peptide)
peptide: [dCha][dR][dL][dK][dV][dR][dW]
B2: wrlkbrw (PEPTIDE ID NO: 307) (peptide)
peptide: [dW][dR][dL][dK][dCha][dR][dW]
B3: lkirbhy (PEPTIDE ID NO: 228) (peptide)
peptide: [dL][dK][dI][dR][dCha][dH][dY]
B4: lkbrihy (PEPTIDE ID NO: 252) (peptide)
peptide: [dL][dK][dCha][dR][dI][dH][dY]
B5: bkirihy (PEPTIDE ID NO: 249) (peptide)
peptide: [dCha][dK][dI][dR][dI][dH][dY]
B6: ukirihy (PEPTIDE ID NO: 203) (peptide)
peptide: [dNle][dK][dI][dR][dI][dH][dY]
B7: lkurihy (PEPTIDE ID NO: 279) (peptide)
peptide: [dL][dK][dNle][dR][dI][dH][dY]
B8: wrukvrw (PEPTIDE ID NO: 258) (peptide)
peptide: [dW][dR][dNle][dK][dV][dR][dW]
B9: lkuruhy (PEPTIDE ID NO: 287) (peptide)
peptide: [dL][dK][dNle][dR][dNle][dH][dY]
B10: lkiruhy (PEPTIDE ID NO: 267) (peptide)
peptide: [dL][dK][dI][dR][dNle][dH][dY]
B11: wrlkurw (PEPTIDE ID NO: 308) (peptide)
peptide: [dW][dR][dL][dK][dNle][dR][dW]
B12: wrbkvrw (PEPTIDE ID NO: 286) (peptide)
peptide: [dW][dR][dCha][dK][dV][dR][dW]
B13: urlkvrw (PEPTIDE ID NO: 282) (peptide)
peptide: [dNle][dR][dL][dK][dV][dR][dW]
B14: wrbkvrw (peptide)
peptide: [dW][dR][dCha][dK][dV][dR][dW]
modifications: not fully specified; printed as wrbkvrw
B15: wrlkbrw (peptide)
peptide: [dW][dR][dL][dK][dCha][dR][dW]
modifications: not fully specified; printed as wrlkbrw
B16: frlkirw (peptide)
peptide: [dF][dR][dL][dK][dI][dR][dW]
B17: wevqvew (peptide)
peptide: [dW][dE][dV][dQ][dV][dE][dW]
B18: rlwvrw (peptide)
peptide: [dR][dL][dW][dV][dR][dW]
B19: welkvrw (peptide)
peptide: [dW][dE][dL][dK][dV][dR][dW]
B20: wdlrlqyw (peptide)
peptide: [dW][dD][dL][dR][dL][dQ][dY][dW]
B21: feleiewh (peptide)
peptide: [dF][dE][dL][dE][dI][dE][dW][dH]
B22: wkvwgrvw (peptide)
peptide: [dW][dK][dV][dW]G[dR][dV][dW]
modifications: not fully specified (residue 5); printed as wkvwgrvw
B23: tlkiew (peptide)
peptide: [dT][dL][dK][dI][dE][dW]
B24: irihyhlk (peptide)
peptide: [dI][dR][dI][dH][dY][dH][dL][dK]
B25: lkarihyh (peptide)
peptide: [dL][dK][dA][dR][dI][dH][dY][dH]
B26: tiklvw (peptide)
peptide: [dT][dI][dK][dL][dV][dW]
B27: wrlrihe (peptide)
peptide: [dW][dR][dL][dR][dI][dH][dE]
B28: awakvrw (peptide)
peptide: [dA][dW][dA][dK][dV][dR][dW]
B29: wwlklrww (peptide)
peptide: [dW][dW][dL][dK][dL][dR][dW][dW]
B30: lkrrihyh (peptide)
peptide: [dL][dK][dR][dR][dI][dH][dY][dH]
B31: fkieieyh (peptide)
peptide: [dF][dK][dI][dE][dI][dE][dY][dH]
B32: lkirieyh (peptide)
peptide: [dL][dK][dI][dR][dI][dE][dY][dH]
B33: wrhkhrw (peptide)
peptide: [dW][dR][dH][dK][dH][dR][dW]
B34: ekirihyh (peptide)
peptide: [dE][dK][dI][dR][dI][dH][dY][dH]
B35: wrlkvr (peptide)
peptide: [dW][dR][dL][dK][dV][dR]
B36: wrekvrww (peptide)
peptide: [dW][dR][dE][dK][dV][dR][dW][dW]
B37: erlrihw (peptide)
peptide: [dE][dR][dL][dR][dI][dH][dW]
B38: welkvew (peptide)
peptide: [dW][dE][dL][dK][dV][dE][dW]
B39: ilkivw (peptide)
peptide: [dI][dL][dK][dI][dV][dW]
B40: ihyhlkir (peptide)
peptide: [dI][dH][dY][dH][dL][dK][dI][dR]
B41: wdldvrw (peptide)
peptide: [dW][dD][dL][dD][dV][dR][dW]
B42: wklklwww (peptide)
peptide: [dW][dK][dL][dK][dL][dW][dW][dW]
B43: lefelkyw (peptide)
peptide: [dL][dE][dF][dE][dL][dK][dY][dW]
B44: arlkarw (peptide)
peptide: [dA][dR][dL][dK][dA][dR][dW]
B45: lkiaihyh (peptide)
peptide: [dL][dK][dI][dA][dI][dH][dY][dH]
B46: wrtktrw (peptide)
peptide: [dW][dR][dT][dK][dT][dR][dW]
B47: wflrihw (peptide)
peptide: [dW][dF][dL][dR][dI][dH][dW]
B48: wkvpvryw (peptide)
peptide: [dW][dK][dV][dP][dV][dR][dY][dW]
B49: elkivw (peptide)
peptide: [dE][dL][dK][dI][dV][dW]
B50: lktrihy (peptide)
peptide: [dL][dK][dT][dR][dI][dH][dY]
B51: twrlvl (peptide)
peptide: [dT][dW][dR][dL][dV][dL]
B52: ararihw (peptide)
peptide: [dA][dR][dA][dR][dI][dH][dW]
B53: wkvwgkvw (peptide)
peptide: [dW][dK][dV][dW]G[dK][dV][dW]
modifications: not fully specified (residue 5); printed as wkvwgkvw
B54: wrlkv (peptide)
peptide: [dW][dR][dL][dK][dV]
B55: wrakarw (peptide)
peptide: [dW][dR][dA][dK][dA][dR][dW]

The first experiment has as its target T1, Tau40 P301L protein (human). Put plainly: cell-based or functional assay.
For B1, the IC50, Tau40 assay (ThT) was 1.82 µM.
On the same count and under the same terms, the figure for B2 is 2.11 µM; for B3 it is 0.9 µM; for B4 it is 1.16 µM.
Take B5: the IC50, Tau40 assay (ThT) worked out at 1.09 µM.
The same measure, in the same setting: the figure for B6 is 0.73 µM; for B7 it is 1.59 µM.
B8 yielded an IC50, Tau40 assay (ThT) of 1.25 µM.
The same measure, in the same setting: as for B9, the figure is 1.65 µM; as for B10, 1.43 µM.
The molecule B11 registered an IC50, Tau40 assay (ThT) of 2.12 µM.
B12 registered an IC50, Tau40 assay (ThT) of 1.65 µM.
On the same count and under the same terms, as for B13, the figure is 1.63 µM.

A further experiment deals with T2, Ac-VQIINK-NH2 (SEQ ID NO: 23). Put plainly: cell-based or functional assay.
In turn, B14 showed a VQIINK Inhibition IC50 of 0.41 µm.
Consider B15, for which the VQIINK Inhibition IC50 was 0.35 µm.

The next experiment has as its target Tau40 P301L protein (human). The experiment is described as follows: cell-based or functional assay.
For B16, the “IC50, Tau40 assay (ThT)” value is 11.7 µM and 12.2 µM.
The same measure, in the same setting: as for B17, the figure is 11.7 µM.
B18: the “IC50, Tau40 assay (ThT)” value is 8.02 µM.
On the same count and under the same terms, as for B19, the figure is 7.92 µM; as for B20, 8.33 µM and 10.1 µM.
As to B21, the “IC50, Tau40 assay (ThT)” value was 14.3 µM and 19.5 µM.
Same read-out and setting: as for B22, the figure is 8.42 µM and 14.1 µM.
On the same count and under the same terms, as for B23, the figure is 8.08 µM.
Same read-out and setting: the figure for B24 is 7.39 µM.
B25: the “IC50, Tau40 assay (ThT)” value was determined as 10.4 µM.
As for B26, the “IC50, Tau40 assay (ThT)” value was 13.7 µM and 14.3 µM.
In the case of B27, the “IC50, Tau40 assay (ThT)” value is 10 µM.
For B28, the “IC50, Tau40 assay (ThT)” value came out at 8.38 µM.
The same measure, in the same setting: the figure for B29 is 7.64 µM; for B30 it is 15.4 µM; for B31 it is 10.3 µM.
For the molecule B32, the “IC50, Tau40 assay (ThT)” value was determined as 8.14 µM.
For B33, the “IC50, Tau40 assay (ThT)” value turned out to be 19.2 µM.
On the same count and under the same terms, as for B34, the figure is 7.42 µM; as for B35, 18.5 µM.
For B36, the “IC50, Tau40 assay (ThT)” value amounted to 19.3 µM.
Still for that read-out and setting: the figure for B37 is 9.9 µM.
Still for that read-out and setting: as for B38, the figure is 10 µM; as for B39, 9.32 µM.
Consider B40, for which the “IC50, Tau40 assay (ThT)” value was determined as 9.7 µM.
Take B41: the “IC50, Tau40 assay (ThT)” value is 14 µM.
Consider B42, for which the “IC50, Tau40 assay (ThT)” value was 9.91 µM and 10.8 µM.
For B43, the “IC50, Tau40 assay (ThT)” value came to 19.7 µM.
Still for that read-out and setting: the figure for B44 is 11.2 µM.
The same measure, in the same setting: as for B45, the figure is 19.5 µM; as for B46, 8.93 µM; as for B47, 8.71 µM.
As to B48, the “IC50, Tau40 assay (ThT)” value was 19 µM and 19.8 µM.
On the same count and under the same terms, as for B49, the figure is 16 µM and 16.6 µM.
B50: the “IC50, Tau40 assay (ThT)” value was 12.5 µM.
In the case of B51, the “IC50, Tau40 assay (ThT)” value is 7.46 µM.
On to B52, for which the “IC50, Tau40 assay (ThT)” value worked out at 12.6 µM.
Still for that read-out and setting: the figure for B53 is 10.4 µM and 10.6 µM.
The same measure, in the same setting: the figure for B54 is 15.1 µM.
On to B55, for which the “IC50, Tau40 assay (ThT)” value worked out at 12.7 µM.
